Reference: article PMC4211667, “Cell Fate Regulation Governed by a Repurposed Bacterial Histidine Kinase” (PLoS Biology, 2014)
Residue numbers refer to the chain shown, from its start. In names and notes the source's numbering stands. Read-outs that look alike come from different tables or passages of the source.

T1: DivL(523–769) (Caulobacter vibrioides, UniProt Q9RQQ9)
T1 construct: DHp-CA domains only (no PAS domains), residues 523-769, N-terminal His6, E. coli Rosetta (DE3) pLysS, homodimer in solution
T1 sequence (Q9RQQ9 523-769): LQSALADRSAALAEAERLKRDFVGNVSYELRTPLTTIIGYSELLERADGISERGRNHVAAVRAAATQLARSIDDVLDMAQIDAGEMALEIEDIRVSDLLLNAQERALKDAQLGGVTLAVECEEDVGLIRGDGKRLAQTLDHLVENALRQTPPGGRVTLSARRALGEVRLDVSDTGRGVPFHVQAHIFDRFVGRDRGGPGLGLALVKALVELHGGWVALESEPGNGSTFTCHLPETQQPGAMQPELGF

B1: DivL(152–769) Y562A (domain or fragment, Caulobacter crescentus, UniProt Q9RQQ9 152-769, looked up)
chain: RADSGLPTAARFAAFVDSVVEPCWIAGADGQAIWGNAAFVRAVGAASAQAPALAGKSFDRGADAVVVEAAGKGERREALRWINVEGRRRAFRLSAQPLDGGGVGVFCADVTEIEDVRDAFKKHVEAHDETLNHIAEAVAIFSQTRRLSYHNTAFAELWGLEPAWLADRPTHGEVLDRLRQRRRLPETIDYAGWKAAELARYEDLGPQADDLWDLPDGRTLKVVRQPHPLGGMLLIYSDITGELRLKAQYNALIQVQQATLDKLNDAVAVFGSDGRLRLHNEAFETFWNVTPHALEAAGDFEGVVELCVPRLHDLSFWRELKGRVADPDPQMRAPTSGEVRTSDSRIVLYQSRPLPDGATLIAFADVTDTRDLQSALADRSAALAEAERLKRDFVGNVSYELRTPLTTIIGASELLERADGISERGRNHVAAVRAAATQLARSIDDVLDMAQIDAGEMALEIEDIRVSDLLLNAQERALKDAQLGGVTLAVECEEDVGLIRGDGKRLAQTLDHLVENALRQTPPGGRVTLSARRALGEVRLDVSDTGRGVPFHVQAHIFDRFVGRDRGGPGLGLALVKALVELHGGWVALESEPGNGSTFTCHLPETQQPGAMQPELGF
notes: DivL pseudo-histidine kinase, Caulobacter crescentus, residues 152-769; source: E. coli Rosetta (DE3) pLysS, purified (Ni-NTA, gel filtration)
B2: DivL(152–769) H579E (domain or fragment, Caulobacter crescentus, UniProt Q9RQQ9 152-769, looked up)
chain: B1 chain with A411Y, H428E
notes: as for B1
B3: DivL(152–769) Y550H (domain or fragment, Caulobacter crescentus, UniProt Q9RQQ9 152-769, looked up)
chain: B1 chain with Y399H, A411Y
notes: DivL pseudo-histidine kinase, Caulobacter crescentus, residues 152-769; also called DivL Y550H; source: E. coli Rosetta (DE3) pLysS, purified (Ni-NTA, gel filtration)
B4: DivL(152–769) R553A (domain or fragment, Caulobacter crescentus, UniProt Q9RQQ9 152-769, looked up)
chain: B1 chain with R402A, A411Y
notes: as for B1
B5: DivL(152–769) T557N (domain or fragment, Caulobacter crescentus, UniProt Q9RQQ9 152-769, looked up)
chain: B1 chain with T406N, A411Y
notes: as for B1
B6: DivJ histidine kinase, Q03228 1-597 (enzyme)
chain: RDDRYASEIIGLETLLDGLPHLAIAVRGQGQVTAVRGAAPPGVTRADLVNRGLTGAAAPGDRQRLTAAIAQAHREGSASLTFNPALGVERVVALDMHRVAPNQLVGVLRDITVERHREHALDQARIDAEALAAGRARFLANMSHELRTPLNAIMGFSDIMRARMFGPLSDRYAEYAELIHESGGHLLDLINDVLDMSKIEAERFELQRGVFDAREAVQAAMRLLRVQSDTAGVQLRGVLPPGELEVDADRRALKQIVLNLVSNALKFTPRGGQVTVTAHGYDGVLEIVVADTGVGISPEDLERLGRPYEQAGGAEQRARGTGLGLSLVRAFAQLHGGEMVIESRLGAGTTVSVRLPVLLAPMVAATPTPPAAPEAPSAPEPAPTVEEPPPASLGDNVIAFAPR
modifications: not checked
B7: PleC histidine kinase/phosphatase, P37894 1-842 (enzyme)
chain: VAHREFIDSERRFRLAVEAARCGIWEWDLNGDQVYLSDVTGAMFGWGGGGVVSGQDLLERISIDHRERVRQALANAAMYGAFDVSFRVPASEQGARSLWIDARGQGFGKPGSEGHARIIGVALDVTEERIAQARAQAAENRLRDAIESVSEAFVLWDRQGRLLMCNRNYRSVFSLEPKILKPGAARAEVNRFAALAIKQDHPAPDGAKGVREAEMMDGRWIQISERRTAEGGLVMTAADITAIKTQEEARRRNEEQLQNAVAGLERSQEQLAELARKYETEKVKAESANKAKSEFLANMSHELRTPLNAINGFSEIMMNEMFGPLGDQRYKGYSQDIHSSGQHLLALINDILDMSKIEAGKMNLKFESMHLEDVAEDAVRLVRNRAEAAGLKLDIDFPQLPEIEADYRAVKQVLLNLLSNAIKFTPRAGSVTVRAEVRRDPFGDLIKVSVTDTGIGIAKEDLARLAKPFEQVESQFSKTTQGTGLGLALTKSLITMHDGVLEMHSTPGEGTTVSFTLPVRHSDQKITRDFVAA
modifications: not checked
B8: DivL(152–769) (domain or fragment)
chain: B1 chain with A411Y
B9: His6-DivL(523–769) (domain or fragment, Caulobacter crescentus, UniProt Q9RQQ9 523-769, looked up)
chain: T1 sequence (Q9RQQ9 523-769)
notes: DivL pseudo-histidine kinase, Caulobacter crescentus, residues 523-769 (DHp and CA domains with part of the N-terminal input helix); also called DivL DHp-CA construct; crystallization construct; source: E. coli Rosetta (DE3) pLysS (plasmid pWSC8), purified (Ni-NTA, gel filtration); not shown: His6, N-terminal, kept

Columns and labels:
DivJ = target: T2, DivJ (Caulobacter vibrioides, UniProt Q03228); test: coupled-enzyme (PK/LDH, NADH) ATPase assay; type: biochemical; conditions: 1 mM ATP, 10 mM MgCl2, kinase buffer pH 8.0; with and without DivK activator
T2 construct: His-tagged, recombinant from E. coli

DivL(523–769) = target: T1, DivL(523–769); test: fluorescence titration of TNP-ATP with DivL; conditions: read-out: apparent binding constant
[1] = target: BODIPY-DivK (unphosphorylated DivK response regulator); test: fluorescence polarization binding assay; conditions: parent: est. 2.0; read off a plot
[2] = target: BODIPY-DivK∼P (phosphorylated DivK response regulator); test: fluorescence polarization binding assay; conditions: parent: est. 36; read off a plot
[3] = target: the molecule itself; test: SEC; gel filtration of the purified DivL point mutants; conditions not given
[4] = target: BODIPY-DivK (unphosphorylated DivK response regulator) (Caulobacter crescentus); test: fluorescence polarisation; 250 nM BODIPY-DivK or BODIPY-DivK∼P with varying kinase concentrations (DivL 0–120 µM), 45 min to equilibrium; DivK∼P made with 250 nM DivJ, 1 mM ATP, 5 mM MgCl2; unphosphorylated DivK with 1 mM AMP-PNP, 5 mM MgCl2; apparent Kd
[5] = target: BODIPY-DivK∼P (phosphorylated DivK response regulator) (Caulobacter crescentus); test: as above
[6] = target: BODIPY-DivK (unphosphorylated DivK response regulator) (Caulobacter crescentus); test: as above; remark: listed apart in the source
[7] = target: BODIPY-DivK∼P (phosphorylated DivK response regulator) (Caulobacter crescentus); test: as above; remark: listed apart in the source
[8] = target: the molecule itself; test: SEC; 2 mg/ml His6-DivL(523–769) on Superdex 200 10/300 GL against Bio-rad standards

T2 sequence (Q03228 189-597): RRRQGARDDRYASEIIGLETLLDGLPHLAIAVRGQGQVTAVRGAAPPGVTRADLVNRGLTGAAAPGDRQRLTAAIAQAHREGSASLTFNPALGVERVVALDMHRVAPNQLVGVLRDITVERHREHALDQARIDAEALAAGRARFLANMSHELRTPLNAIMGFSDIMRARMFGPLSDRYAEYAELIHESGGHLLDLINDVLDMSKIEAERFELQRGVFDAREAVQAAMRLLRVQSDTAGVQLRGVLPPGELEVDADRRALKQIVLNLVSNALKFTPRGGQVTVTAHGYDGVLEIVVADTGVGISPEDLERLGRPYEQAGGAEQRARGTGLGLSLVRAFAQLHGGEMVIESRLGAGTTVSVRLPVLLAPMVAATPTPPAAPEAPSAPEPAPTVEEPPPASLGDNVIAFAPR

Molecule | response [1] | response [2] | stoichiometry N [3] | also measured
Nc1ncnc2c1ncn2[C@@H]1O[C@H](COP(=O)(O)OP(=O)(O)OP(=O)(O)O)[C@@H](O)[C@H]1O [ATP] |  |  |  | ATP consumption rate (DivJ): we observed stimulation of DivJ autokinase activity in the presence of DivK
Nc1ncnc2c1ncn2[C@@H]1O[C@H](COP(=O)(O)OP(=O)(O)OP(=O)(O)O)[C@H]2OC3(O[C@H]21)C([N+](=O)[O-])=CC(=[N+]([O-])O)C=C3[N+](=O)[O-] (stereo partly shown) [TNP-ATP] |  |  |  | Kd (DivL(523–769)): 57 ± 8 µM
B1 | 2.9 AU | 3.2 AU | 2 | 
B2 | 4.2 AU | 5.1 AU | 2 | 
B3 | 4 AU | 35 AU | 2 | 
B4 | 2.3 AU | 3.2 AU | 2 | 
B5 |  | 2.6 AU | 2 | 
B6 |  |  |  | Kd [4]: 8 µM; Kd [5]: 16 µM
B7 |  |  |  | Kd [4]: 26 µM; Kd [5]: 2.4 µM
B8 |  |  |  | Kd [6]: > 150 µM; Kd [7]: 11 µM
B9 |  |  |  | stoichiometry N [8]: 2; Kd [6]: 15 µM; Kd [7]: 7 µM
